Patent US11547761B1, “Antibody adjuvant conjugates” (The Board of Trustees of the Leland Stanford Junior …, priority 2016, dated 2023)

Tested on: human APCs (myeloid cells)
Experiment: APC-tumor co-culture / myeloid cell stimulation, surface markers by flow cytometry
Format: cell-based
Details: 18 hours of stimulation
From the text: Human antigen presenting cells (APCs) were negatively selected from human peripheral blood mononuclear cells obtained from healthy blood donors (Stanford Blood Center) by density gradient centrifugation using a RosetteSep Human Monocyte Enrichment Cocktail (Stem Cell Technologies) containing monoclonal antibodies against CD2, CD3, CD8, CD19, CD56, CD66b and CD235a. Immature APCs were subsequently purified to >97% purity via negative selection using an EasySep Human Monocyte Enrichment Kit without CD16 depletion containing monoclonal antibodies against CD2, CD3, CD19, CD20, CD56, CD66b, CD123 and CD235a.
Tumor cells were resuspended in PBS with 0.1% fetal bovine serum (FBS) at 1 to 10×10^6 cells/mL. Cells were subsequently incubated with 2 μM CFSE to yield a final concentration of 1 μM. […]
2×10^5 APCs were incubated with or without 6.5×10^5 autologous or allogeneic CFSE-labeled tumor cells in 96-well plates (Corning) containing IMDM medium (Gibco) supplemented with 10% fetal bovine serum, 100 U/mL penicillin, 100 μg/mL streptomycin, 2 mM L-glutamine, sodium pyruvate, non-essential amino acids, 50 μM 2-ME and, where indicated, various concentrations of anti-tumor antibody and the indicated adjuvants. Cells and cell-free supernatants were analyzed after 18 hours via flow cytometry. […]

B1: Nivolumab IgG1 immunoconjugate (conjugate, chains of the INN, looked up)
VH: QVQLVESGGGVVQPGRSLRLDCKASGITFSNSGMHWVRQAPGKGLEWVAVIWYDGSKRYYADSVKGRFTISRDNSKNTLFLQMNSLRAEDTAVYYCATNDDYWGQGTLVTVSS
VL: EIVLTQSPATLSLSPGERATLSCRASQSVSSYLAWYQQKPGQAPRLLIYDASNRATGIPARFSGSGSGTDFTLTISSLEPEDFAVYYCQQSSNWPRTFGQGTKVEIK
modifications: IgG1 adjuvant immunoconjugate
APC / myeloid / dendritic cell activation (overall): very potent
